From US20200276237A1 (MIE UNIVERSITY, published 2020) come the findings set out here.

Assay [1] concerns the target T1, HLA-A2-MAGE-A4 p230 monomer (human).
T1 construct: Biotinylated soluble monomer, captured on neutravidin plates (ELISA) or on the Biacore sensor chip CAP; also called HLA-A2-MAGE-A4 monomer; MAGE-A4-derived peptide/HLA-A2 complex
Kind of assay: SPR, BiacoreX100, HLA-A2-MAGE-A4 p230 on sensor chip CAP, purified scFv 12.5-200 nM, single cycle. A general note: In SPR one partner is held on a chip, and binding of the other changes the refractive index at the surface.
Description: Determination of KD value by Biacore was determined by measuring the dynamic changes in detection sensitivity (resonance, reflecting the change in mass on the chip) over time. The dissociation rate constant (Kd) and the binding rate constant (Ka) were determined by dynamic change curve, the binding constant was determined from the ratio of the two constants.

Assay [2] addresses T2, HLA-A2/MAGE-A11 risk peptide on T2 cells (human).
T2 construct: whole, on cells
Kind of assay: FACS on T2 cells pulsed with risk peptide.

Assay [3] has as its target T3, HLA-A2/MAGE-A8 risk peptide on T2 cells (human).
T3 construct: whole, on cells
Kind of assay: FACS on T2 cells pulsed with risk peptide.

Assay [4] concerns the target T4, HLA-A2/MAGE-B10 risk peptide on T2 cells (human).
T4 construct: whole, on cells
Kind of assay: FACS on T2 cells pulsed with risk peptide.

Assay [5] addresses T5, HLA-A2/MAGE-A10 risk peptide on T2 cells (human).
T5 construct: whole, on cells
In words: FACS on T2 cells pulsed with risk peptide.

Assay [6] deals with T6, HLA-A2/MAGE-B2 risk peptide on T2 cells (human).
T6 construct: whole, on cells
Kind of assay: FACS on T2 cells pulsed with risk peptide.

The target of assay [7] is T7, HLA-A2/MAGE-C2 risk peptide on T2 cells (human).
T7 construct: whole, on cells
In words: FACS on T2 cells pulsed with risk peptide.

Assay [8] deals with T8, HLA-A2/RBBP5 risk peptide on T2 cells (human).
T8 construct: whole, on cells; Theoretical MHC IC50 is high (5880.0 nM)
Kind of assay: FACS on T2 cells pulsed with risk peptide.

A word on the Kd: it is the equilibrium constant for the complex coming apart. A high value points to weaker binding.

B1: MAGE #17 scFv-FLAG/His (scFv)
scFv: QVQLVQSGAEVKKPGSSVKVSCKASGGTFSSYAISWVRQAPGQGLEWMGGIIPIFGTANYAQKFQGRVTITADKSTSTAYMELSSLRSEDTAVYYCARSPRRAYHDAFDIWGQGTMVTVSSGGGGSGGGGSGGGGSSYELTQPPSMSVAPGKTASITCGGDHIGSKSVHWYQQKPGQAPVLVVYDDSDRPSGIPERFSGSNSGNTATLTISGTQAMDEADYYCLAWDSSTAIFGGGTKLTVL
notes: Purified scFv-FLAG/His form, used for Biacore and for FACS on T2 cells (detection with anti-FLAG); also called clone #17; anti-MAGE #17; not shown: FLAG tag and His tag from the His/FLAG expression vector
Molecule B1 had a Kd in assay [1] of 22 nM. Moreover, the binding result in assay [2], in assay [3], in assay [4], in assay [5], in assay [6] and in assay [7] was “no binding” in each case. In addition, the binding result in assay [8] is given as “no binding”.
